The target in assay [1] is T1, human plasma-derived vWF (human, UniProt P04275 764-2813).
T1 construct: mature; also called plasma-derived purified vWF; von Willebrand factor
The experiment in a line: ELISA, GF coated 50 nM, vWF 1 µg/mL. The protocol: ELISA tests were performed as previously reported1. In brief, ELISA plates (med-binding, Greiner Bio-One) were coated with 50 nM GFs at 37° C. for 2 hrs. […] Then, HRP conjugated goat anti-rabbit antibody (Jackson ImmunoResearch) was added. After 60 min of incubation, 50 μL TMB substrate (Sigma-Aldrich) was added. The reaction was stopped by adding 25 μL of 2N H2SO4. Subsequently, the absorbance at 450 nm was measured and subtracted the absorbance at 570 nm.

Assay [2] deals with T2, laminin-421 (human, UniProt Q16363 25-1823; P55268 33-1798; P11047 34-1609).
T2 construct: Full-length recombinant human laminin isoform (BioLamina); chains read from the isoform name
The experiment in a line: ELISA, GF coated, laminin 10 nM. How it is done:
(§1) ELISA tests were performed as previously reported. In brief, ELISA plates (med-binding, Greiner Bio-One) were coated with 50 nM GFs at 37° C. for more than 2 hrs. […] Bound laminin was detected with rabbit anti-human laminin γ1 chain antibody (1:1000 dilution, Assay biotech) or rabbit anti-human laminin α3 chain antibody (1:1000 dilution, Assay biotech). After incubation with biotinylated anti-rabbit antibody for 60 min at room temperature (RT), HRP conjugated streptavidin (Jackson ImmunoResearch) was added. After 60 min of incubation at RT, 50 μL TMB substrate (Sigma-Aldrich) was added. The reactions were stopped by adding 25 μL of 2 N H₂SO₄. Subsequently, the absorbance at 450 nm was measured with a reference of 570 nm.

Assay [3] has as its target T3, laminin-111 (human, UniProt P25391 18-3075; P07942 22-1786; P11047 34-1609).
T3 construct: Full-length recombinant human laminin isoform (BioLamina); Chain composition is read from the isoform name
The assay can be described thus: ELISA, GF coated, laminin 10 nM. How it is done: as §1

The target in assay [4] is T4, laminin-511 (human, UniProt O15230 36-3695; P07942 22-1786; P11047 34-1609).
T4 construct: Full-length recombinant human laminin isoform (BioLamina); chains read from the isoform name
The assay can be described thus: ELISA, GF coated, laminin 10 nM. How it is done: as §1

In assay [5] the target is T5, laminin-521 (human, UniProt O15230 36-3695; P55268 33-1798; P11047 34-1609).
T5 construct: Full-length recombinant human laminin isoform (BioLamina); chains read from the isoform name
The assay can be described thus: ELISA, GF coated, laminin 10 nM. The protocol:
as §1

Assay [6] addresses T6, laminin-411 (human, UniProt Q16363 25-1823; P07942 22-1786; P11047 34-1609).
T6 construct: Full-length recombinant human laminin isoform (BioLamina); chains read from the isoform name
The assay can be described thus: ELISA, GF coated, laminin 10 nM. The protocol:
as §1

Assay [7] concerns the target T7, laminin-211 (human, UniProt P24043 23-3122; P07942 22-1786; P11047 34-1609).
T7 construct: Full-length recombinant human laminin isoform (BioLamina); chains read from the isoform name
The assay can be described thus: ELISA, GF coated, laminin 10 nM. How it is done:
as §1

T6 sequence (Q16363 25-1823 limits assumed, chain 1 of 3): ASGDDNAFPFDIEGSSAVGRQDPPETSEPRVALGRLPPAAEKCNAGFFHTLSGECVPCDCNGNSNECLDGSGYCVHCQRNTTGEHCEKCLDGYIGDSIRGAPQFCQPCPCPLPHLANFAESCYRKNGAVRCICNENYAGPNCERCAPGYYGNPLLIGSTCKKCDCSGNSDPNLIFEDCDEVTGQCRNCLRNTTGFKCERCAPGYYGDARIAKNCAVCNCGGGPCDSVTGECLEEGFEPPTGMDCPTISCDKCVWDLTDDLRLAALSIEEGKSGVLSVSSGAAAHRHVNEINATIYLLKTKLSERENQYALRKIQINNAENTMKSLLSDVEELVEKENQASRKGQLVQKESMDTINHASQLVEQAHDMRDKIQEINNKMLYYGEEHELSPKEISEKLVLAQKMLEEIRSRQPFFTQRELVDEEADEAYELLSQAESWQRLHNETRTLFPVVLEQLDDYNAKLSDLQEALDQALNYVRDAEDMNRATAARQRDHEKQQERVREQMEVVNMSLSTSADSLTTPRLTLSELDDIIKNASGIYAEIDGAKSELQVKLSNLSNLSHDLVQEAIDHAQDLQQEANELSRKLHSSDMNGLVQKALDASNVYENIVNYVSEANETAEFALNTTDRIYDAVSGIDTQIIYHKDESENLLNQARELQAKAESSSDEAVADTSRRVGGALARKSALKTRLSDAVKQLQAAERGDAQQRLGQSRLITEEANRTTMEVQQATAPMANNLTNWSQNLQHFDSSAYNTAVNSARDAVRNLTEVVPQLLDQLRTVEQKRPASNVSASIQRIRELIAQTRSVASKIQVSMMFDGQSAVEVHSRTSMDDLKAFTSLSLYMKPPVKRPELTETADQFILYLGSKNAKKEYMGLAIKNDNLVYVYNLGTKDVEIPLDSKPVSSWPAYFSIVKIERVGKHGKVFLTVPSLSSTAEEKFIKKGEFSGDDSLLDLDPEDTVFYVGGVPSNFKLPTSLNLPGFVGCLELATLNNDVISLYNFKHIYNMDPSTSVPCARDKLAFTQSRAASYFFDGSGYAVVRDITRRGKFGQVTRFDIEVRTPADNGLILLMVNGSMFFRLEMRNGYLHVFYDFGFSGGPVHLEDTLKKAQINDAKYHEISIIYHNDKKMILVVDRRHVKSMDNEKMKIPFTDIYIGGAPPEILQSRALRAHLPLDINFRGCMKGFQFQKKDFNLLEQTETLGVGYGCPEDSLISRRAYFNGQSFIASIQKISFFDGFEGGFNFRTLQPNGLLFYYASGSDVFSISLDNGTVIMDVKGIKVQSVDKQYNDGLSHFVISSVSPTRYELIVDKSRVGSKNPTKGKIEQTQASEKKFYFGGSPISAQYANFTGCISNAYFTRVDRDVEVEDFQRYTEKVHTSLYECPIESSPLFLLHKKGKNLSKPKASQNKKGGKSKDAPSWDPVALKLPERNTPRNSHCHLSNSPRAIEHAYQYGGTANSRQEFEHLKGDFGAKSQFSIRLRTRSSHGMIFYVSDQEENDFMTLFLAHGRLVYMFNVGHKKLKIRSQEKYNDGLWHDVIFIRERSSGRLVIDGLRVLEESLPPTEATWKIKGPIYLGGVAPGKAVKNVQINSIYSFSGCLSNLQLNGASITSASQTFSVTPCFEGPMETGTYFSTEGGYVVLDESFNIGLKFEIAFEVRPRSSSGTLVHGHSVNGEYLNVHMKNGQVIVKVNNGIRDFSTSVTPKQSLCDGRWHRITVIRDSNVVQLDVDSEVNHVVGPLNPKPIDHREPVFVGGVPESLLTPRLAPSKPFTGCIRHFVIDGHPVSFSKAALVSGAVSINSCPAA
T6 sequence (P07942 22-1786 limits assumed, chain 2 of 3): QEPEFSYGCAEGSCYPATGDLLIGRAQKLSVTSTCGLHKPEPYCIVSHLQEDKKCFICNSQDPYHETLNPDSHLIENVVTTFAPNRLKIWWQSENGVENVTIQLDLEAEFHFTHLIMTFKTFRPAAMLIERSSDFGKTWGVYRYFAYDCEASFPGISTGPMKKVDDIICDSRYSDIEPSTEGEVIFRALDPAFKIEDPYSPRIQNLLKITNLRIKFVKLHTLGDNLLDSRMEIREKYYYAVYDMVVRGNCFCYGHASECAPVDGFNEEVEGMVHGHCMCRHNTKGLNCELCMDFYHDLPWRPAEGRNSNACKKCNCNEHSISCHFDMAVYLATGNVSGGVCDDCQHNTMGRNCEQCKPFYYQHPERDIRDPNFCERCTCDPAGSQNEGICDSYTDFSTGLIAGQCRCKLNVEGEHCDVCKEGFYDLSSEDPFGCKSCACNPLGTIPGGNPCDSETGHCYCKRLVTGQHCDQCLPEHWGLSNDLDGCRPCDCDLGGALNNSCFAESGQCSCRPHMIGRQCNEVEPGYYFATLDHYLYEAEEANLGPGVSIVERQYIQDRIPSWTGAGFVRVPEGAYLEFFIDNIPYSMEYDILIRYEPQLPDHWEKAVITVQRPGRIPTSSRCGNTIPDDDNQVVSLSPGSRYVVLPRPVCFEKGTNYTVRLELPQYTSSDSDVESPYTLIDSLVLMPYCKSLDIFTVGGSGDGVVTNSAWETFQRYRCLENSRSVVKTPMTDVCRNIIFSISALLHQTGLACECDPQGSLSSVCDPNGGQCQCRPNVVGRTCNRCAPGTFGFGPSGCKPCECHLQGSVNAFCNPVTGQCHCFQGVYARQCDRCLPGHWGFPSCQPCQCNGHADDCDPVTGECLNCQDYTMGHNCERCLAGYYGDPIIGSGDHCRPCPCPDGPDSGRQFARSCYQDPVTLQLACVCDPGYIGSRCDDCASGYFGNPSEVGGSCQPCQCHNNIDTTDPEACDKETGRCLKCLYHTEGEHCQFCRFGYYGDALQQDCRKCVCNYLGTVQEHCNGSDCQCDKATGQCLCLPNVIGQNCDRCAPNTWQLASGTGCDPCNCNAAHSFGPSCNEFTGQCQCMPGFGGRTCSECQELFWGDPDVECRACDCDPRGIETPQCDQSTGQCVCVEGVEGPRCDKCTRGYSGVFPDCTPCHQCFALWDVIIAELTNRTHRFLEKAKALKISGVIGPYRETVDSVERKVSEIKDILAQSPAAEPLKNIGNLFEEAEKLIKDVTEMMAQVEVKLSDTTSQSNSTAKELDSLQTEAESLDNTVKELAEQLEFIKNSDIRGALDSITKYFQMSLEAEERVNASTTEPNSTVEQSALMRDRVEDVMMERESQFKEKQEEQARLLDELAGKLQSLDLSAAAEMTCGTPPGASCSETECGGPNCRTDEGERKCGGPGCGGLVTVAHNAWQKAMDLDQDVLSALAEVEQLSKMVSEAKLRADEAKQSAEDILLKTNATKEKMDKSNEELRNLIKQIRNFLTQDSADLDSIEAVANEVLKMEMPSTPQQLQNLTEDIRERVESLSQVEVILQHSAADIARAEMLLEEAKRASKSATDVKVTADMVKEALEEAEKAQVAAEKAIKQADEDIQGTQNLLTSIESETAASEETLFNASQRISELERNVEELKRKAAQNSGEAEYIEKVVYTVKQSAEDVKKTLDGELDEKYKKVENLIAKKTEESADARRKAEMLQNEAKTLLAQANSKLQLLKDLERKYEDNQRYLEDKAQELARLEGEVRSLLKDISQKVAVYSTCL
T6 sequence (P11047 34-1609 limits assumed, chain 3 of 3): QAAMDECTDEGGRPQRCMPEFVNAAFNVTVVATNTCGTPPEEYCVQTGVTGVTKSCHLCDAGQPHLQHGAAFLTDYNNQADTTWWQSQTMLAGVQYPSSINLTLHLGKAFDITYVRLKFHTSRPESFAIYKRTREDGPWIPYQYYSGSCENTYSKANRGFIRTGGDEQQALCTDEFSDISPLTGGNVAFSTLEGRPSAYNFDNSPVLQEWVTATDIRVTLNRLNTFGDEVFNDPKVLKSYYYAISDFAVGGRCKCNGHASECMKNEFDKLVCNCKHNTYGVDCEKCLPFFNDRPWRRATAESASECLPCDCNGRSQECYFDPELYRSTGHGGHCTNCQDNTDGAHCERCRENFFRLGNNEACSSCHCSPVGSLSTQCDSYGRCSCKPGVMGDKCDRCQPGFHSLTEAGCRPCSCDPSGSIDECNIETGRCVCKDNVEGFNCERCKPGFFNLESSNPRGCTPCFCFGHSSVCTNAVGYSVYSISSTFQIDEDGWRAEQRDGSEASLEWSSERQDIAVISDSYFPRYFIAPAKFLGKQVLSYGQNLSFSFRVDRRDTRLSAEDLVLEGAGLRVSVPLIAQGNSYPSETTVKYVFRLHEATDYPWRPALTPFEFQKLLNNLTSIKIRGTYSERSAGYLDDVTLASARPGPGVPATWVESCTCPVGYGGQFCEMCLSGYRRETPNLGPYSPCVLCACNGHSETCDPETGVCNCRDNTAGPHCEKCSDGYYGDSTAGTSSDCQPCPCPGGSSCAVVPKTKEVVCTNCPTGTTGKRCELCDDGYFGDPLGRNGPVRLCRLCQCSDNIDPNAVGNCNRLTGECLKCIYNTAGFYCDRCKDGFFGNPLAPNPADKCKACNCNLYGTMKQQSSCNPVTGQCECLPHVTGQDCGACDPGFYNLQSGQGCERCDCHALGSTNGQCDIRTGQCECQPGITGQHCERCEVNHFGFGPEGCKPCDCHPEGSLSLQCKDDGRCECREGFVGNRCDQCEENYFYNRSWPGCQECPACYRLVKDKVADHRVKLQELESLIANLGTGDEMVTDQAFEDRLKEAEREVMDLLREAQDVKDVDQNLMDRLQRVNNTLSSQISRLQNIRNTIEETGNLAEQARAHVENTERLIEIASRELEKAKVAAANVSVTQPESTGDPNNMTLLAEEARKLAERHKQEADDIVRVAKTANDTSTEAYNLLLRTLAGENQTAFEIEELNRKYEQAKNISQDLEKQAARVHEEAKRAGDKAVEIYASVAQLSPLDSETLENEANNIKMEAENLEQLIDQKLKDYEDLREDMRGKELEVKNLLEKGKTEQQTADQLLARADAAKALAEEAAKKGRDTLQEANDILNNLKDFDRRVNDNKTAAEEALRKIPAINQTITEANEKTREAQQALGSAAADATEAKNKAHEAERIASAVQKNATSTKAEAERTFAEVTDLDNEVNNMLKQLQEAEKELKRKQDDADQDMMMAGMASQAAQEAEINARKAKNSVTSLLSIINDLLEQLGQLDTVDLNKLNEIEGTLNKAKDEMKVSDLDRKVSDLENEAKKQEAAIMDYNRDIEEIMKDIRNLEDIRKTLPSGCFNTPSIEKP

B1: neurotrophin (NT)-3 (ligand, UniProt P20783 139-257, looked up)
chain: YAEHKSHRGEYSVCDSESLWVTDKSSAIDIRGHQVTVLGEIKTGNSPVKQYFYETRCKEARPVKNGCRGIDDKHWNSQCKTSQTYVRALTSENNKLVGWRWIRIDTSCVCALSRKIGRT
notes: mature; Purchased in mature form
In the case of B1, the binding result in assay [1], in assay [2], in assay [3], in assay [4], in assay [5] and in assay [6] was “binds” each time. In addition, the binding result in assay [7] is on record as “binds”.

B2: fibroblast growth factor (FGF)-7 (ligand, UniProt P21781 32-194, looked up)
chain: CNDMTPEQMATNVNCSSPERHTRSYDYMEGGDIRVRRLFCRTQWYLRIDKRGKVKGTQEMKNNYNIMEIRTVAVGIVAIKGVESEFYLAMNKEGKLYAKKECNEDCNFKELILENHYNTYASAKWTHNGGEMFVALNQKGIPVRGKKTKKEQKTAHFLPMAIT
notes: as for B1
Consider B2, for which the binding result in assay [1], in assay [2], in assay [3], in assay [4], in assay [5] and in assay [6] was “binds” throughout. For the same molecule, in assay [7], the binding result is “binds”.

B3: bone morphogenetic protein (BMP)-3 (ligand, UniProt P12645 363-472, looked up)
chain: QWIEPRNCARRYLKVDFADIGWSEWIISPKSFDAYYCSGACQFPMPKSLKPSNHATIQSIVRAVGVVPGIPEPCCVPEKMSSLSILFFDENKNVVLKVYPNMTVESCACR
notes: as for B1
Consider B3, for which the binding result in assay [2], in assay [3], in assay [4], in assay [5], in assay [6] and in assay [7] was “binds” in each case.

B4: epidermal growth factor (EGF) (ligand, UniProt P01133 971-1023, looked up)
chain: NSDSECPLSHDGYCLHDGVCMYIEALDKYACNCVVGYIGERCQYRDLKWWELR
notes: as for B1
On to B4, for which the binding result in assay [1] is listed as “no binding”.

B5: fibroblast growth factor (FGF)-18 (ligand, UniProt O76093 28-207, looked up)
chain: EENVDFRIHVENQTRARDDVSRKQLRLYQLYSRTSGKHIQVLGRRISARGEDGDKYAQLLVETDTFGSQVRIKGKETEFYLCMNRKGKLVGKPDGTSKECVFIEKVLENNYTALMSAKYSGWYVGFTKKGRPRKGPKTRENQQDVHFMKRYPKGQPELQKPFKYTTVTKRSRRIRPTHPA
notes: as for B1
Turning to B5, the binding result in assay [1], in assay [2], in assay [3], in assay [4], in assay [5] and in assay [6] was “binds” in each case. Also, the binding result in assay [7] is on record as “binds”.

B6: brain-derived neurotrophic factor (BDNF) (ligand, UniProt P23560 129-247, looked up)
chain: HSDPARRGELSVCDSISEWVTAADKKTAVDMSGGTVTVLEKVPVSKGQLKQYFYETKCNPMGYTKEGCRGIDKRHWNSQCRTTQSYVRALTMDSKKRIGWRFIRIDTSCVCTLTIKRGR
notes: as for B1
For B6, the binding result in assay [2], in assay [3], in assay [4], in assay [5], in assay [6] and in assay [7] was “binds” throughout.

B7: fibroblast growth factor (FGF)-10 (ligand, UniProt O15520 38-208, looked up)
chain: QALGQDMVSPEATNSSSSSFSSPSSAGRHVRSYNHLQGDVRWRKLFSFTKYFLKIEKNGKVSGTKKENCPYSILEITSVEIGVVAVKAINSNYYLAMNKKGKLYGSKEFNNDCKLKERIEENGYNTYASFNWQHNGRQMYVALNGKGAPRRGQKTRRKNTSAHFLPMVVHS
notes: as for B1
On to B7, for which the binding result in assay [2], in assay [3], in assay [4], in assay [5], in assay [6] and in assay [7] was “binds” throughout.

B8: bone morphogenetic protein (BMP)-2 (ligand, UniProt P12643 283-396, looked up)
chain: QAKHKQRKRLKSSCKRHPLYVDFSDVGWNDWIVAPPGYHAFYCHGECPFPLADHLNSTNHAIVQTLVNSVNSKIPKACCVPTELSAISMLYLDENEKVVLKNYQDMVVEGCGCR
notes: mature
Take B8: the binding result in assay [1], in assay [2], in assay [3], in assay [4], in assay [5] and in assay [6] was “binds” throughout. Also, the binding result in assay [7] was “binds”.

B9: TGF-β3 (ligand, UniProt P10600 301-412, looked up)
chain: ALDTNYCFRNLEENCCVRPLYIDFRQDLGWKWVHEPKGYYANFCSGPCPYLRSADTTHSTVLGLYNTLNPEASASPCCVPQDLEPLTILYYVGRTPKVEQLSNMVVKSCKCS
notes: as for B1
Regarding B9, in assay [1], the binding result is recorded as “no binding”.

B10: C-X-C motif ligand (CXCL)-11 (ligand, UniProt O14625 22-94, looked up)
chain: FPMFKRGRCLCIGPGVKAVKVADIEKASIMYPSNNCDKIEVIITLKENKGQRCLNPKSKQARLIIKKVERKNF
notes: as for B1
For B10, the binding result is “binds” in assay [1]; “no binding (tested: A450 0.1)” in assay [2]; “no binding (tested: A450 0.1)” in assay [3]; “no binding (tested: A450 0.1)” in assay [4]; “no binding (tested: A450 0.1)” in assay [5]; “no binding (tested: A450 0.1)” in assay [6]. Besides, the binding result in assay [7] is “no binding (tested: A450 0.1)”.

The values above are taken from patent US20240092867A1 (UNIVERSITY OF CHICAGO, published 2024).
